Data set [1] deals with HeLa Kyoto. The data set can be described thus: thermal stability score vs G1/S (z-score of summed log2 fold changes over temperatures); higher = more thermally stable than in G1/S.
Data set [2] relates to HeLa Kyoto. The data set can be described thus: solubility in G1/S (NP-40 vs SDS abundance) (log2 ratio); higher = more soluble. To be noted: cell cycle stage: G1/S.
Data set [3] deals with HeLa Kyoto. The data set is described as follows: melting temperature (median over replicates), in situ; higher = more thermally stable.
In data set [4] the test system is HeLa Kyoto. The data set can be described thus: solubility change mitosis vs G1/S (difference of NP-40 vs SDS log2 ratios) (log2 ratio difference); higher = more soluble in mitosis.
Where [5] appears, read: cell cycle stage: early G1 (4.5 h after nocodazole release).
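Throughout, for melting temperature (median over replicates), in situ: HeLa Kyoto cells synchronized by double thymidine or nocodazole block, proteins quantified by TMT10plex mass spectrometry, three independent biological replicates.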
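Throughout, for solubility change mitosis vs G1/S (difference of NP-40 vs SDS log2 ratios): synchronized HeLa Kyoto cells (double thymidine block for G1/S, nocodazole release for mitosis), protein amounts in NP-40 versus SDS lysates quantified by mass spectrometry, three biological replicates.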
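Throughout, for solubility in G1/S (NP-40 vs SDS abundance): HeLa Kyoto cells arrested at G1/S by double thymidine block, proteins quantified by TMT10plex mass spectrometry in mild NP-40 versus SDS extracts, three biological replicates.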
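Throughout, for thermal stability score vs G1/S (z-score of summed log2 fold changes over temperatures): synchronized HeLa Kyoto cells, proteins quantified by TMT10plex mass spectrometry, three biological replicates, mitosis taken 0.5 h after nocodazole release, G1/S directly after double thymidine block.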

With “MSVVGIDLGFLNCYIAVARSGGIETIANEYSDRCTPACISLGSRTRAIGNAAKSQIVTNVRNTIHGFKKLHGRSFDDPIVQTERIRLPYELQKMPNGSAGVKVRYLEEERPFAIEQVTGMLLAKLKETSENALKKPVADCVISIPSFFTDAERRSVMAAAQVAGLNCLRLMNETTAVALAYGIYKQDLPPLDEKPRNVVFIDMGHSAYQVLVCAFNKGKLKVLATTFDPYLGGRNFDEALVDYFCDEFKTKYKINVKENSRALLRLYQECEKLKKLMSANASDLPLNIECFMNDLDVSSKMNRAQFEQLCASLLARVEPPLKAVMEQANLQREDISSIEIVGGATRIPAVKEQITKFFLKDISTTLNADEAVARGCALQCAILSPAFKVREFSITDLVPYSITLRWKTSFEDGSGECEVFCKNHPAPFSKVITFHKKEPFELEAFYTNLHEVPYPDARIGSFTIQNVFPQSDGDSSKVKVKVRVNIHGIFSVASASVIEKQNLEGDHSDAPMETETSFKNENKDNMDKMQVDQEEGHQKCHAEHTPEEEIDHTGAKTKSAVSDKQDRLNQTLKKGKVKSIDLPIQSSLCRQLGQDLLNSYIENEGKMIMQDKLEKERNDAKNAVEEYVYDFRDRLGTVYEKFITPEDLSKLSAVLEDTENWLYEDGEDQPKQVYVDKLQELKKYGQPIQMKYMEHEERPKALNDLGKKIQLVMKVIEAYRNKDERYDHLDPTEMEKVEKCISDAMSWLNSKMNAQNKLSLTQDPVVKVSEIVAKSKELDNFCNPIIYKPKPKAEVPEDKPKANSEHNGPMDGQSGTETKSDSTKDSSQHTKSSGEMEVD [HSPA4L]”, the thermal stability score with HeLa Kyoto [1] (setting [5]) is 1.4; with HeLa Kyoto [1] (cell cycle stage: mitosis) it was 1.87. Also, in the data set on HeLa Kyoto [2], the “solubility in G1/S (log2)” value was determined as 0.145. Also, the figures for the melting temperature in the data set on HeLa Kyoto [3] (cell cycle stage: G1/S) and with HeLa Kyoto [3] (cell cycle stage: mitosis) were 49.8 °C and 49.9 °C, respectively. Further, in the data set on HeLa Kyoto [4], the “solubility change mitosis (log2)” value was -0.0487.

Take “MSVVGIDLGFQSCYVAVARAGGIETIANEYSDRCTPACISFGPKNRSIGAAAKSQVISNAKNTVQGFKRFHGRAFSDPFVEAEKSNLAYDIVQLPTGLTGIKVTYMEEERNFTTEQVTAMLLSKLKETAESVLKKPVVDCVVSVPCFYTDAERRSVMDATQIAGLNCLRLMNETTAVALAYGIYKQDLPALEEKPRNVVFVDMGHSAYQVSVCAFNRGKLKVLATAFDTTLGGRKFDEVLVNHFCEEFGKKYKLDIKSKIRALLRLSQECEKLKKLMSANASDLPLSIECFMNDVDVSGTMNRGKFLEMCNDLLARVEPPLRSVLEQTKLKKEDIYAVEIVGGATRIPAVKEKISKFFGKELSTTLNADEAVTRGCALQCAILSPAFKVREFSITDVVPYPISLRWNSPAEEGSSDCEVFSKNHAAPFSKVLTFYRKEPFTLEAYYSSPQDLPYPDPAIAQFSVQKVTPQSDGSSSKVKVKVRVNVHGIFSVSSASLVEVHKSEENEEPMETDQNAKEEEKMQVDQEEPHVEEQQQQTPAENKAESEEMETSQAGSKDKKMDQPPQAKKAKVKTSTVDLPIENQLLWQIDREMLNLYIENEGKMIMQDKLEKERNDAKNAVEEYVYEMRDKLSGEYEKFVSEDDRNSFTLKLEDTENWLYEDGEDQPKQVYVDKLAELKNLGQPIKIRFQESEERPKLFEELGKQIQQYMKIISSFKNKEDQYDHLDAADMTKVEKSTNEAMEWMNNKLNLQNKQSLTMDPVVKSKEIEAKIKELTSTCSPIISKPKPKVEPPKEEQKNAEQNGPVDGQGDNPGPQAAEQGTDTAVPSDSDKKLPEMDID [HSPA4]”: the values for the thermal stability score in the data set with HeLa Kyoto [1] (setting [5]) and with HeLa Kyoto [1] (cell cycle stage: mitosis) were 0.436 and 1.85, respectively. In addition, the “solubility in G1/S (log2)” value in the data set on HeLa Kyoto [2] is 0.198. For the same sequence, the melting temperature with HeLa Kyoto [3] (cell cycle stage: G1/S) is 51.3 °C; with HeLa Kyoto [3] (cell cycle stage: mitosis), 51.1 °C. For the same sequence, the “solubility change mitosis (log2)” value in the data set on HeLa Kyoto [4] was -0.0794.

Turning to “MSWAARPPFLPQRHAAGQCGPVGVRKEMHCGVASRWRRRRPWLDPAAAAAAAVAGGEQQTPEPEPGEAGRDGMGDSGRDSRSPDSSSPNPLPQGVPPPSPPGPPLPPSTAPSLGGSGAPPPPPMPPPPLGSPFPVISSSMGSPGLPPPAPPGFSGPVSSPQINSTVSLPGGGSGPPEDVKPPVLGVRGLHCPPPPGGPGAGKRLCAICGDRSSGKHYGVYSCEGCKGFFKRTIRKDLTYSCRDNKDCTVDKRQRNRCQYCRYQKCLATGMKREAVQEERQRGKDKDGDGEGAGGAPEEMPVDRILEAELAVEQKSDQGVEGPGGTGGSGSSPNDPVTNICQAADKQLFTLVEWAKRIPHFSSLPLDDQVILLRAGWNELLIASFSHRSIDVRDGILLATGLHVHRNSAHSAGVGAIFDRVLTELVSKMRDMRMDKTELGCLRAIILFNPDAKGLSNPSEVEVLREKVYASLETYCKQKYPEQQGRFAKLLLRLPALRSIGLKCLEHLFFFKLIGDTPIDTFLMEMLEAPHQLA [RXRB]”, the thermal stability score in the data set with HeLa Kyoto [1] (setting [5]) was found to be 0.348; in the data set with HeLa Kyoto [1] (cell cycle stage: mitosis), 0.163. Further, in the data set with HeLa Kyoto [2], the “solubility in G1/S (log2)” value turned out to be 0.264. The melting temperature in the data set on HeLa Kyoto [3] (cell cycle stage: G1/S) was found to be 47.6 °C; with HeLa Kyoto [3] (cell cycle stage: mitosis) it was 49.1 °C. For the same sequence, the “solubility change mitosis (log2)” value with HeLa Kyoto [4] is -0.14.

In the case of “MSWGTELWDQFDNLEKHTQWGIDILEKYIKFVKERTEIELSYAKQLRNLSKKYQPKKNSKEEEEYKYTSCKAFISNLNEMNDYAGQHEVISENMASQIIVDLARYVQELKQERKSNFHDGRKAQQHIETCWKQLESSKRRFERDCKEADRAQQYFEKMDADINVTKADVEKARQQAQIRHQMAEDSKADYSSILQKFNHEQHEYYHTHIPNIFQKIQEMEERRIVRMGESMKTYAEVDRQVIPIIGKCLDGIVKAAESIDQKNDSQLVIEAYKSGFEPPGDIEFEDYTQPMKRTVSDNSLSNSRGEGKPDLKFGGKSKGKLWPFIKKNKLMSLLTSPHQPPPPPPASASPSAVPNGPQSPKQQKEPLSHRFNEFMTSKPKIHCFRSLKRGLSLKLGATPEDFSNLPPEQRRKKLQQKVDELNKEIQKEMDQRDAITKMKDVYLKNPQMGDPASLDHKLAEVSQNIEKLRVETQKFEAWLAEVEGRLPARSEQARRQSGLYDSQNPPTVNNCAQDRESPDGSYTEEQSQESEMKVLATDFDDEFDDEEPLPAIGTCKALYTFEGQNEGTISVVEGETLYVIEEDKGDGWTRIRRNEDEEGYVPTSYVEVCLDKNAKDS [FNBP1]”, the values for the thermal stability score in the data set with HeLa Kyoto [1] (setting [5]) and with HeLa Kyoto [1] (cell cycle stage: mitosis) were 0.62 and 0.929, respectively. Further, in the data set with HeLa Kyoto [2], the “solubility in G1/S (log2)” value was found to be 0.298. In addition, the melting temperature with HeLa Kyoto [3] (cell cycle stage: G1/S) amounted to 49.7 °C; in the data set on HeLa Kyoto [3] (cell cycle stage: mitosis), 49.4 °C. Also, the “solubility change mitosis (log2)” value with HeLa Kyoto [4] was -0.129.

For the sequence “MSWGTELWDQFDSLDKHTQWGIDFLERYAKFVKERIEIEQNYAKQLRNLVKKYCPKRSSKDEEPRFTSCVAFFNILNELNDYAGQREVVAEEMAHRVYGELMRYAHDLKTERKMHLQEGRKAQQYLDMCWKQMDNSKKKFERECREAEKAQQSYERLDNDTNATKADVEKAKQQLNLRTHMADENKNEYAAQLQNFNGEQHKHFYVVIPQIYKQLQEMDERRTIKLSECYRGFADSERKVIPIISKCLEGMILAAKSVDERRDSQMVVDSFKSGFEPPGDFPFEDYSQHIYRTISDGTISASKQESGKMDAKTTVGKAKGKLWLFGKKPKPQSPPLTPTSLFTSSTPNGSQFLTFSIEPVHYCMNEIKTGKPRIPSFRSLKRGWSVKMGPALEDFSHLPPEQRRKKLQQRIDELNRELQKESDQKDALNKMKDVYEKNPQMGDPGSLQPKLAETMNNIDRLRMEIHKNEAWLSEVEGKTGGRGDRRHSSDINHLVTQGRESPEGSYTDDANQEVRGPPQQHGHHNEFDDEFEDDDPLPAIGHCKAIYPFDGHNEGTLAMKEGEVLYIIEEDKGDGWTRARRQNGEEGYVPTSYIDVTLEKNSKGS [FNBP1L]”, the thermal stability score is -0.0981 in the data set with HeLa Kyoto [1] (setting [5]) and -0.548 with HeLa Kyoto [1] (cell cycle stage: mitosis). In the data set on HeLa Kyoto [2], the “solubility in G1/S (log2)” value worked out at 0.339. Further, the melting temperature in the data set with HeLa Kyoto [3] (cell cycle stage: G1/S) and in the data set on HeLa Kyoto [3] (cell cycle stage: mitosis) was 51.1 °C in each case. The “solubility change mitosis (log2)” value with HeLa Kyoto [4] was -0.034.

For the origin of these results see the supplement of paper PMC5998384.
